{"source": "patent US20110046207", "target": "T1, biotinylated human D-C5a (mirror-image C5a) (Homo sapiens) (UniProt P01031)", "T1 sequence": "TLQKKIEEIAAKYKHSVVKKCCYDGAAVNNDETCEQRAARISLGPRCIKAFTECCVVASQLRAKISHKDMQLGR", "assay": "pulldown"}
{"sequence": "AGCGUGCUCGUCCGAUUGGCGGCACCCUUGCGGGACUGGGGAGUACGCU [172-D7-003]", "values": [{"measurement": "Kd", "setting": "U to C at 3' end of 5'-terminal stretch", "result": 372, "unit": "nM"}]}
{"sequence": "AGCGUGCUUGUCCGAUUGGCGGCACCCUUGCGGGACUGGGGAGUACGCU [172-D7-000]", "values": [{"measurement": "Kd", "setting": "37 C, 1 mM MgCl2, 1 mM CaCl2", "result": 30, "unit": "nM"}]}
{"sequence": "GCUGAACACGCCGCGUAGGACCCAAUGGGUAGAAUGGGCAGC [179-A3-015]", "values": [{"measurement": "Kd", "setting": "reference for type C ranking", "result": "> 7.2", "unit": "nM"}]}
{"sequence": "GCUGGGCGUGUUUACUUGCUUAAUAGGGGGCCCAGC [185-H3-001]", "values": [{"measurement": "Kd", "setting": "37 C, 1 mM MgCl2, 1 mM CaCl2", "result": 5, "unit": "nM"}]}
{"sequence": "GUACUGCGUUCGGACGUGGCAUGUUCCUUGACAAACGGUUGGCAGUAC [182-E5]", "values": [{"measurement": "Kd", "setting": "37 C, 1 mM MgCl2, 1 mM CaCl2", "result": 2.4, "unit": "nM"}]}
{"sequence": "GUGCUGAACACGCCGCGUAGGACUUCAAUGGAGUAGAAUGGGCAGCAC [179-A3]", "values": [{"measurement": "Kd", "setting": "37 C, 1 mM MgCl2, 1 mM CaCl2", "result": 7.2, "unit": "nM"}]}
{"sequence": "GUGCUGCGUUCGGACGUGGCAUGUUCCUUGACAAACGGUUGGCAGCAC [182-C5]", "values": [{"measurement": "Kd", "setting": "37 C, 1 mM MgCl2, 1 mM CaCl2", "result": 2.2, "unit": "nM"}]}
{"sequence": "GUGCUGGGUUCGGACGUGGCAUGUUCCUUGAUAAACGGUUGCCAGCAC [182-A8]", "values": [{"measurement": "Kd", "setting": "37 C, 1 mM MgCl2, 1 mM CaCl2", "result": 3.2, "unit": "nM"}]}
{"sequence": "GUGCUUGUCCGAUUGGCGGCACCCUUGCGGGACUGGGGAGUAC [172-D7-002]", "values": [{"measurement": "Kd", "setting": "six base pair terminal helix", "result": 108, "unit": "nM"}]}
